In data set [1] the test system is MS2 coat protein. Briefly: apparent KD of MS2 coat protein, switch ON state; designed switch direction (-1 OFF switch, 1 ON switch): -1; higher = weaker reporter binding. Particulars: FMN input: 0 or 200 uM; Eterna round: R93 (includes R88 designs). The essentials:
(§1)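 Binding of SNAP-549-labelled MS2 coat protein was measured on designed RNA switches transcribed on-chip from Illumina sequencing clusters. The protein rose in twofold steps from 0.7 or 1.5 nM to 3 µM, with 0.8–1.5 h per step early on and 10–20 min per step later, in 100 mM Tris-HCl pH 7.5, 80 mM KCl, 4 mM MgCl2, without or with constant ligand. Each design's apparent KD is the median of fits to its normalised cluster binding curves.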

In data set [2] the test system is MS2 coat protein. Briefly: apparent KD of MS2 coat protein, switch OFF state (with FMN for OFF switches, without FMN for ON switches); designed switch direction (-1 OFF switch, 1 ON switch): -1; higher = weaker reporter binding. Particulars: FMN input: 0 or 200 uM; Eterna round: R93 (includes R88 designs). The essentials:
as §1

These results are taken from the supplement of paper PMC9170038.

On to “GAUAGGCGAGGAUAUACAUGAGGAUCACCCAUGUAAGUAAGCCUGGCUGAAACUGAAUGUAGAAGGCGCAAAUU [Mat - Exclusion 3 - Neo mod - D70]”, for which the entries for the “apparent KD of MS2 coat protein” value with MS2 coat protein [1] and in the data set with MS2 coat protein [2] were 17.8 nM and 67.7 nM, respectively.
On to “AGUUAGCGAGGAUAUACAUGAGGAUCACCCAUGUGAGAGAAAAAAGUGAGAAAGAAAAGUAGAAGGCGCUAACA [Moding Norbert Elias (73)]”, for which the “apparent KD of MS2 coat protein” value in the data set with MS2 coat protein [1] turned out to be 42.3 nM; in the data set on MS2 coat protein [2], 119 nM.
For “CUCAUGUCAGGAUAUCAGUAGUAAAAAAAUAAAAUUACUACUGAGAAGGGACAUGAGGAUCACCCAUGUAAAAA [EX4 363: Super Stable 63]”, in that order: 16.1 nM and 23.2 nM.
For “GGUUGUCGAGGAUAUACAUGAGGAUCACCCAUGUGAGAGAAAAAAGUGAGAAAGAAAAGUAGAAGGUGGUGACG [salish99-ex3-71]”, the results for the “apparent KD of MS2 coat protein” value in the data set on MS2 coat protein [1] and in the data set on MS2 coat protein [2] were 57.6 nM and 92.9 nM, respectively.
For “AAAAAGCGAGGAUAUACAUAGCUAAGACAUGUAAGCGAAAAACAUGAGGAUCACCCAUGUAGAAGGCGCAAAAA [Exclusion2-02]”, in that order: 16.8 nM and 16.5 nM.
Take “AAAGACAGAGGAUAUACAUGAGGAUCACCCAUGUGGCGAAAAAAAAUCCAUUUGGCAUGUAGAAGGCUGUAUGA [Orerzadi]”: the “apparent KD of MS2 coat protein” value is 66.9 nM in the data set with MS2 coat protein [1] and 51.3 nM in the data set on MS2 coat protein [2].
Take “AAAACGUGAGGAUAUGCACCAAAAAAGAAAAAACGGGUACGACAUGAGGAUCACCCAUGUAGAAGGCACGAAAA [Frodo Flailing 8 - Jieux - Exclusion 2]”: the figures for the “apparent KD of MS2 coat protein” value in the data set on MS2 coat protein [1] and with MS2 coat protein [2] were 35.3 nM and 37.2 nM, respectively.
For “AAAGAGCAAGGAUAUACAUGAGGAUCACCCAUGUAUGGAGAUACAAAACAAAAGAUCAGUAGAAGGUGCGGAUG [Rageleor]”, in that order: 20.3 nM and 26.3 nM.
For “AAAAAGUGAGGAUAUACAUGAAAAAAAAAAAAAAAAAAAAAACAUGAGGAUCACCCAUGUAGAAGGCGCAAAAA [GC GU GC sandwich]”, the “apparent KD of MS2 coat protein” value amounted to 31.5 nM with MS2 coat protein [1] and 43.1 nM with MS2 coat protein [2].
On to “AGUCAUACAGGAUAUACAUGAGGAUCACCCAUGUAAAUCCUAAAAAGAAAAAACUCAUGUAGAAGGGUAUGACA [EX3 223: Super Stable 23]”, for which the “apparent KD of MS2 coat protein” value in the data set on MS2 coat protein [1] turned out to be 16.1 nM; in the data set with MS2 coat protein [2], 39.2 nM.
As to “AAAAAGGGAGGAUAUGCAUACACAAAAAAAAAAAAAAAAAAACAUGAGGAUCACCCAUGUAGAAGGCCCAAAAA [Dora Explored 3 - Jieux - Exclusion 2]”, the “apparent KD of MS2 coat protein” value in the data set on MS2 coat protein [1] was determined as 37.4 nM; in the data set on MS2 coat protein [2], 28.9 nM.
For “AAGAACGCAGGAUAUACAAAAUAAAAGAAAAGAAAGAAAGAACAUGAGGAUCACCCAUGUAGAAGGGCGAAGAA [Sewadjkare]”, in that order: 52.2 nM and 49.5 nM.
With “GAAAGUGGAGGAUAUACAUGAGGAUCACCCAUGUGUAAAAAUAAAUACACAAAAGAAAGUAGAAGGCCACAAAG [Mat - Exclusion 3 - Mayanna mod - D118]”, the “apparent KD of MS2 coat protein” value with MS2 coat protein [1] was 30.6 nM; with MS2 coat protein [2], 125 nM.
The matching figures for “GAAUGACUAGGAUAUACAUGAGGAUCACCCAUGUGUUAAAAUAAAUACACAAAAGAAAGUAGAAGGAGUCAAAG [Mat - Exclusion 3 - Mayanna mod - D126]”: 21 nM and 50.3 nM.
Regarding “AAAAUGUCAGGAUAUGUAAAAAAAAAAAAAAAAAAAAAAAUACAGAAGGGACAUGAGGAUCACCCAUGUCAGGG [EX4 390: Minimal 2]”, the “apparent KD of MS2 coat protein” value in the data set with MS2 coat protein [1] turned out to be 113 nM; with MS2 coat protein [2] it was 79 nM.
For “CUCAAGUGAGGAUAUUAAAGAAAAGAAGAGAAAGAAAAGAAUAAGAAGGCACAUGAGGAUCACCCAUGUAAGAA [EteRNA is fun!]”, in that order: 26.4 nM and 33 nM.
Turning to “AACUGACAUGAGGAUCACCCAUGUCAGGAUAUGACUUCGAAAAAAAAAAAAAACGAUGUCAGAAGGGACAUGGA [Design 66: Sub-opt N]”, the “apparent KD of MS2 coat protein” value in the data set with MS2 coat protein [1] was 17.5 nM; in the data set with MS2 coat protein [2], 27.2 nM.
For “AAAAAACAUGAGGAUCACCCAUGUCAGGAUAUCUGUAUUCAAUCCUCGGAUUGAAUACAGAGAAGGGACAUAAA [Ex1: 605]”, the “apparent KD of MS2 coat protein” value with MS2 coat protein [1] amounted to 46.2 nM; with MS2 coat protein [2] it was 126 nM.
The matching figures for “AAGGGACAUGAGGAUCACCCAUGUCAGGAUAUGCAAACAACAAACAACAAACAACAAAGCAGAAGGGACAAAAA [63%, Olong, 5]”: 29.1 nM and 24.1 nM.
